Test results taken from patent publication US20160311919A1 (CELLDEX THERAPEUTICS, published 2016).
Values joined by “and” are separate entries in the source; they are usually repeats but may differ in a detail not shown here. Equal entries are not always repeated.

Columns and labels:
[1] = target: T1, GPNMB (CG56972), native full-length protein on the cell surface or in cell lysates (human, UniProt Q14956 23-492); assay: cell-based or functional assay
T1 sequence: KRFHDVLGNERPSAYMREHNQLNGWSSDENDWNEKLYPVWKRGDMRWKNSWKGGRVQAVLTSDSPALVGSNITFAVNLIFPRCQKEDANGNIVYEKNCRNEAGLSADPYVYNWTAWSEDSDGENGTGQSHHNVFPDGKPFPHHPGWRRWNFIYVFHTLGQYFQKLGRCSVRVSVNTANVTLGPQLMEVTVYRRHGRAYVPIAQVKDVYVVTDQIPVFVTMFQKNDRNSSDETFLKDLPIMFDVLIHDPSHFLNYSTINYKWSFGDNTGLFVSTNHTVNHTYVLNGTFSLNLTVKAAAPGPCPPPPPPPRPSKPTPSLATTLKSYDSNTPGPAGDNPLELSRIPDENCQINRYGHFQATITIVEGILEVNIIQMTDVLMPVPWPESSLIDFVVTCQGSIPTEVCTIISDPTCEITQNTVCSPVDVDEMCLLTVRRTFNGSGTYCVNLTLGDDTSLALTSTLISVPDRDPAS

[2] = target: T1, GPNMB (CG56972), native full-length …; assay: FACS, UACC-62 cells, Ab 1 ug/mL
Experimental: Cells were washed twice with PBS (Ca and Mg free), incubated with Versene at 37° C. until cells detached, counted and aliquoted at 1 million cells per assay tube. Cells were then washed twice and resuspended in ice-cold FACS buffer (0.01M HEPES, 0.15M NaCl, 0.1% NaN₃ and 4% FBS). Primary antibody at 1 μg/mL was added to the cells. Cells were incubated on ice for 30 min, washed 2-3 times and resuspended in 1 mL of ice-cold FACS buffer. R-PE-conjugated goat anti-human antibody (Jackson ImmunoResearch Laboratory) at 1:100 dilution was added and cells were incubated on ice for 30 min. After washing 3 times with 1 mL of ice-cold FACS buffer, cells were fixed with 0.5-1 mL of 1% formaldehyde in PBS and analyzed by flow cytometry.

[3] = target: T1, GPNMB (CG56972), native full-length …; assay: cell-based or functional assay; remark: listed apart in the source
[4] = target: T1, GPNMB (CG56972), native full-length …; assay: cell-based or functional assay; remark: listed apart in the source
[5] = target: T1, GPNMB (CG56972), native full-length …; assay: cell-based or functional assay; remark: listed apart in the source
[6] = target: T1, GPNMB (CG56972), native full-length …; assay: cell-based or functional assay; remark: listed apart in the source
[7] = target: T1, GPNMB (CG56972), native full-length …; assay: cell-based or functional assay; remark: listed apart in the source
[8] = target: T2, CD3 on purified human T cells (human, UniProt P07766 23-207); assay: flow cytometry on purified human T cells, mouse anti-FLAG mAb then PE goat anti-mouse Ig F(ab')2
T2 construct: whole, on cells; also called CD3/TCR complex
T2 sequence (P07766 23-207): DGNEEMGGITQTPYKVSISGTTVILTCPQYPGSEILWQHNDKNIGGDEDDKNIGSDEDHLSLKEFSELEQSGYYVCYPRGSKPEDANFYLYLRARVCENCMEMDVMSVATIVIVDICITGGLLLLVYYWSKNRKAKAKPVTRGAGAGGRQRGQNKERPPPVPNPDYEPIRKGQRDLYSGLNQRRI
Text: (Jackson ImmunoResearch, West Grove, Pa.) Ten thousand events were collected and analyzed on a FACSCalibur instrument (Becton Dickinson, Mountain View, Calif.).
To verify binding of the bi-scFv to human CD3 molecules, we used purified human T cells.

B1: Mab2.10.2 (antibody, human IgG2, V domains shown)
VH: QLVESGGGVVQPGRSLRLSCAASGFAFSSYGMHWVRQAPGKGLEWVAVISYDGNNKYYADSVKGRFTISRDNSKNTLYLQMNSLRAEDTAVYYCARDLVVRGIRGYYYYFGMDVWGQGTTVTVSS
VL: not shown
notes: Human IgG2 kappa from XenoMouse XMG2; also called CR011.2.10.2
killing of UACC-62 cells with saporin-conjugated secondary antibody, clonogenic, Ab 50 ng/mL [1]: > 70%
Geo Mean Ratio (relative to pK16) [2]: 2.6

B2: CR011-vcMMAE (Mab1.15.1 conjugated to monomethylauristatin E through a valine-citrulline linker) (other)
heavy: QVQLQESGPGLVKPSQTLSLTCTVSGGSISSFNYYWSWIRHHPGKGLEWIGYIYYSGSTYSNPSLKSRVTISVDTSKNQFSLTLSSVTAADTAVYYCARGYNWNYFDYWGQGTLVTVSSASTKGPSVFPLAPCSRSTSESTAALGCLVKDYFPEPVTVSWNSGALTSGVHTFPAVLQSSGLYSLSSVVTVPSSNFGTQTYTCNVDHKPSNTKVDKTVERKCCVECPPCPAPPVAGPSVFLFPPKPKDTLMISRTPEVTCVVVDVSHEDPEVQFNWYVDGVEVHNAKTKPREEQFNSTFRVVSVLTVVHQDWLNGKEYKCKVSNKGLPAPIEKTISKTKGQPREPQVYTLPPSREEMTKNQVSLTCLVKGFYPSDIAVEWESNGQPENNYKTTPPMLDSDGSFFLYSKLTVDKSRWQQGNVFSCSVMHEALHNHYTQKSLSLSPGK
VL: not shown
modifications: vcMMAE on cysteines of reduced disulfides, about 4 drugs per antibody (3.5-4.2); positions not given
IC50 of colony formation (% of control), clonogenic assay, SK-Mel-2 cells with GPNMB knocked down by GPNMB siRNA [3]: 1 µg/mL
IC50 of colony formation (% of control), clonogenic assay, control-siRNA-transfected SK-Mel-2 cells [3]: 0.22 µg/mL
IC50 of colony formation (% of control), clonogenic assay, mock-transfected SK-Mel-2 cells [3]: 0.33 µg/mL
IC50, clonogenic assay with 1.15.1-AE, SR cells [4]: 296 ng/mL and 2000 pM
IC50, clonogenic assay with 1.15.1-AE, THP-1 cells [4]: 207 ng/mL and 1400 pM
IC50, clonogenic assay with 1.15.1-AE, U937 cells [4]: 340 ng/mL and 2400 pM
IC50, clonogenic assay with 1.15.1-AE, G361 cells [5]: 1050 ng/mL and 6500 pM
IC50, clonogenic assay with 1.15.1-AE, RPMI-7951 cells [5]: 972 ng/mL and 6000 pM
IC50, clonogenic assay with 1.15.1-AE, SK-Mel 2 cells [5]: 111 ng/mL and 750 pM
IC50, clonogenic assay with 1.15.1-AE, SK-Mel 5 cells [5]: 237 ng/mL and 1600 pM
IC50, clonogenic assay with 1.15.1-AE, UACC-62 cells [5]: 697 ng/mL and 4300 pM
IC50, clonogenic assay with 1.15.1-AE, UACC-257 cells [5]: 825 ng/mL and 5500 pM
IC50, clonogenic assay with 1.15.1-AE, WM-266-4 cells [5]: 345 ng/mL and 2300 pM
IC50 of colony formation (% of control), clonogenic assay after 96 h treatment of HEK293 cells transfected with GPNMB; the same conjugate on empty-vector cells prints >1000 [6]: 0.3 µg/mL
CR011-AE IC50, clonogenic assay, SF-268 cells (poor expression) [7]: > 1.5 µg/mL
CR011-AE IC50, clonogenic assay, SF-539 cells [7]: 1.03 µg/mL
CR011-AE IC50, clonogenic assay, SK-MEL-2 cells [7]: 0.303 µg/mL
CR011-AE IC50, clonogenic assay, SNB-78 cells [7]: 0.449 µg/mL
CR011-AE IC50, clonogenic assay, U-118-MG cells [7]: 1.25 µg/mL
CR011-AE IC50, clonogenic assay, XF-498 cells [7]: 0.216 µg/mL

B3: Mab1.15.1 (CR011), fully human IgG2 (antibody)
heavy: B2 heavy
VL: not shown
killing of UACC-62 cells with saporin-conjugated secondary antibody, clonogenic, Ab 50 ng/mL [1]: > 70%

B4: CR011 scFv (VL-L4-VH) Flag (scFv)
scFv: EIVMTQSPATLSVSPGERATLSCRASQSVDNNLVWYQQKPGQAPRLLIYGASTRATGIPARFSGSGSGTEFTLTISSLQSEDFAVYYCQQYNNWPPWTFGQGTKVEIKLSADDAKKDAAKKDDAKKDDAKKDLQVQLQESGPGLVKPSQTLSLTCTVSGGSISSFNYYWSWIRHHPGKGLEWIGYIYYSGSTYSNPSLKSRVTISVDTSKNQFSLTLSSVTAADTAVYYCARGYNWNYFDYWGQGTLVTVSSASDYKDDDDK
notes: C-terminal Flag tag is within the entry; also called CR011 single chain antibody; CR011 scFv monomer
binding result [8]: no binding (tested: 5 µg/sample/100 µl)

B5: Mab2.22.1 (antibody, human IgG2, V domains shown)
VH: QVQLEQSGPGLVKPSQNLSLTCTVSGGSISSGGYFWSWIRQHPGKGLEWIGYIYYSGNTYYNPSLKSRVTISVDTSKNQFSLKLSSVTAADTAVYYCARDYYYDTSGFSYRYDWYYGMDVWGQGTTVTVSS
VL: DIQLTQSPSSLSASVGDRVTITCRASQGIRNDLGWYQQKPGKAPKRLIYAASSLQNGVPSRFSGSGSGTEFTLTISSLQPEDFATYYCLQHNTYPAFGQGTKVEIKR
notes: Human IgG2 kappa from XenoMouse XMG2; also called CR011.2.22.1
killing of UACC-62 cells with saporin-conjugated secondary antibody, clonogenic, Ab 50 ng/mL [1]: > 70%
Geo Mean Ratio (relative to pK16) [2]: 4.46

B6: Mab1.2.2 (antibody, human IgG2, V domains shown)
VH: ITLKESGPTLVKPTQTLTLTCTFSGFSLSAGGVGVGWIRQPPGKALEWLALIYWNDDKRYSPSLRSRLTITKDTSKNQVVLTITNMDPVDTATYYCAHSHYDYDWGSYFDYWGQGTLVTVSS
VL: DIVMTQTPLSLPVTPGEPASISCRSSQSLLDSDDGNTYLDWYLQKPGQSPQLLIYTLSYRASGVPDRFSGSGSGTDFTLNISRVEAEDVGVYYCMQRIEFPITFGQGTRLEIKR
notes: Human IgG2 kappa from XenoMouse XMG2; also called CR011.1.2.2
Geo Mean Ratio (relative to pK16) [2]: 1.24
